Assay in all cases: cAMP activity assay (pCRE β-galactosidase reporter), transfected HEK293T cells
Format in all cases: cell-based

In one assay the target is T1, RXFP1 F66A (Homo sapiens, UniProt Q9HBX9, F88A).
T1 construct: cells expressing full-length RXFP1 and mutants; expressed in transfected cells; host or cells: HEK293T
T1 sequence (Q9HBX9 23-757 F88A limits assumed): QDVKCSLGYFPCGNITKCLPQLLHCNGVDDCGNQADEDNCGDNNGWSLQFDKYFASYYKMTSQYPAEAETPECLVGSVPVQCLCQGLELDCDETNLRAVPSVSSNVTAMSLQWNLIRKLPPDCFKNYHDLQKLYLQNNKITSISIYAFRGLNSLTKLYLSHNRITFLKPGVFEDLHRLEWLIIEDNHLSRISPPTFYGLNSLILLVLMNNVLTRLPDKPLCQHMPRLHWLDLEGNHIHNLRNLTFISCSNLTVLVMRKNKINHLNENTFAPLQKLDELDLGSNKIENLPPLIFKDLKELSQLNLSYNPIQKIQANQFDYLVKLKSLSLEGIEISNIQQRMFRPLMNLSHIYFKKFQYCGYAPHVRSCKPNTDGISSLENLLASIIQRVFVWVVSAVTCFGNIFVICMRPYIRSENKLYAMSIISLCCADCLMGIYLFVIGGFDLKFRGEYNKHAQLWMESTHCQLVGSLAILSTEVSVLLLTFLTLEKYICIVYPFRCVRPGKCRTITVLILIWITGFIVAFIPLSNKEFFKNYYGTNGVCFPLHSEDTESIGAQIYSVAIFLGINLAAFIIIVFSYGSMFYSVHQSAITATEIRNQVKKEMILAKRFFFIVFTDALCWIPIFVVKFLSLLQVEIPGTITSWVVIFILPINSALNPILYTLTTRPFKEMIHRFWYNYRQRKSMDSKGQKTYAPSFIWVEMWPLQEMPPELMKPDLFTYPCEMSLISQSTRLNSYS
As to conditions: construct F66A, ±s.e.m. The gist of the method:
(§1)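 Absorbance at 570 nm from β-galactosidase cleavage of chlorophenol red-β-D-galactopyranoside, expressed as percentage of the maximal 5 μM Forskolin response (mean ± s.e.m., ≥3 experiments in triplicate). Stimulant was H2 relaxin in minimal media containing 1% DMSO.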

In the next assay the target is T2, RXFP1 T61A (Homo sapiens, UniProt Q9HBX9, T83A).
T2 construct: cells expressing full-length RXFP1 and mutants; expressed in transfected cells; host or cells: HEK293T
T2 sequence (Q9HBX9 23-757 T83A limits assumed): T1 sequence (Q9HBX9 23-757 F88A limits assumed) with T61A, A66F
As to conditions: construct T61A, ±s.e.m. The gist of the method: as §1

For a further assay, the target named is T3, RXFP1 Q49A/F50A (Homo sapiens, UniProt Q9HBX9, F72A/Q71A).
T3 construct: cells expressing full-length RXFP1 and mutants; expressed in transfected cells; host or cells: HEK293T
T3 sequence (Q9HBX9 23-757 Q71A/F72A limits assumed): T1 sequence (Q9HBX9 23-757 F88A limits assumed) with Q49A, F50A, A66F
The conditions noted are these: construct Q49A/F50A, ±s.e.m. Summed up: as §1

[1] abbreviates: percentage of maximum response to 5 μM Forskolin.

Changes are numbered by the printed parent chain.

Regarding “H2 relaxin: two-chain 6-kDa peptide hormone structurally related to insulin; recombinant human gene-2 H2 relaxin provided by Corthera”, the “H2 relaxin pEC50” value with RXFP1 F66A (cAMP reporter) is 11.20±0.08; with RXFP1 T61A (cAMP reporter) it was 11.15±0.17 (5); in the assay with RXFP1 Q49A/F50A (cAMP reporter), 9.17±0.04 (3). The “H2 relaxin Emax” value is 88.29±3.52 (3) % with RXFP1 F66A (setting [1]), 142.58±15.97 (4) % with RXFP1 T61A (setting [1]) and 98.2±8.8 (3) % with RXFP1 Q49A/F50A (setting [1]).

The values are drawn from PMC4837482, “The complex binding mode of the peptide hormone H2 relaxin to its receptor RXFP1” (Nature Communications, 2016).
